Measured values from PMC11257031 (Archives of biochemistry and biophysics, 2023).

Biological target: the molecule itself
Experiment: SEC

B1: Zymomonas mobilis pyruvate kinase (enzyme, UniProt O86020 1-475, looked up)
chain: MTEGLFPRGRKVRVVSTLGPASSTAEQIRDRFLAGADVFRINMSHGTHDEKKVIVDNIRALEKEFNRPTTILFDLQGPKLRVGDFKEGKVQLKEGQTFTFDQDPTLGDETRVNLPHPEIFKALDKGHRLLLDDGKIVVRCVESSPTKIVTRVEVPGPLSDHKGFNVPDVVIPLAALTPKDRKDLDFALKEKADWVALSFVQRVEDVIEAKELIKGRAPLLVKLEKPAAIENLESILAATDAVMVARGDLGVECLPESVPPTQKRIVERSRQLGKPVVVATAMLESMIKAPAPTRAEVSDVANAIYEGADGIMLSAESAAGDWPHEAVNMMHRIASYVENAPGYIERVRFTPTPAEPTTVDALAENASKTAETVGAKAIIVFTETGKTAQRVSRARPVAPILSLTPDAEVARRLGLVWGAQPVQVSTVKTLDEAKKLAAETAKKYGFAKAGDKLVVVAGEPFGKAGTTNIVDVIEA
B1 was tested, and the “stoichiometry N” value was 2.
